Assay results published in patent US8580269B2, “Survivin peptides for autoimmune therapies” (Health Research, Inc., priority 2007, dated 2013).

Columns and labels:
H2-K^b = target: T1, H2-K^b (Mus musculus, UniProt P01901); assay: MHC class I peptide binding assay, upregulation of H2-K^b on RMA-S cells; format: cell-based, murine; details: 100 μM peptide at 37° C., FIG. 3
T1 construct: Upregulation of H2-K^b molecules on the surface of murine RMA-S cells; endogenous in cells; host or cells: murine RMA-S cells
T1 sequence (P01901 22-369): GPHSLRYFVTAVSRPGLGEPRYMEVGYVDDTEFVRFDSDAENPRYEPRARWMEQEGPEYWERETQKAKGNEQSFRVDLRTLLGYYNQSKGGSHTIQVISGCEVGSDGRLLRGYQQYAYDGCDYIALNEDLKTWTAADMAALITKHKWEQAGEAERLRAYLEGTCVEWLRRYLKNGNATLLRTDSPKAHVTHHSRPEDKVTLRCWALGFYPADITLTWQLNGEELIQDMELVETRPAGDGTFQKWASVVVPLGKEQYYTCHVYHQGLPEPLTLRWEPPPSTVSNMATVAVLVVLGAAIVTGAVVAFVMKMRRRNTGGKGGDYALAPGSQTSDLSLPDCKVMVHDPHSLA
T1 sequence (P01887 21-119 partner): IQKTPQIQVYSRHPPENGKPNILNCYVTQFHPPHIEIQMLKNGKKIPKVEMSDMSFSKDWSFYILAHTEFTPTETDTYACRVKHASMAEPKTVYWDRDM
Description: To obtain the data presented in FIG. 3, survivin peptide epitopes were used in conventional MHC class I peptide binding assays. Mean fluorescence in FIG. 3 represents binding of SVN peptides to H2-K^b. Upregulation of H2-K^b molecules on the surface of murine RMA-S cells which are deficient in the expression of surface MHC class I molecules was used to determine actual survivin peptide binding in vitro. Data presented in FIG. 3 represent the binding of 100 μM peptide at 37° C.

GL261 cells = assay: intracranial survival study in GL261 murine glioma model; format: in vivo, C57BL/6 mice; details: peptide loaded DC vaccine, GL261-C57BL/6 glioma model, FIG. 6
Description: FIG. 6 provides a graphical representation of data obtained from intracranial survival studies in a GL261 murine model utilizing altered peptides based on survivin amino acids 53-67. The peptides were administered using peptide loaded dendritic cell (DC) vaccines or as Keyhole Limpet Hemocyanin (KLH) conjugates. To obtain the data presented in FIG. 6, mice were intracranially implanted with 1×10^5 GL261 cells and were treated with survivin peptide DC vaccines. C57BL/6 mice were immunized with SVN57-64 based altered peptides, or OVA258-265 peptide loaded DC2.4 cells as well as a direct subcutaneous injection of 100 ug SVN 53-67/M57-KLH peptide in Incomplete Freund's Adjuvant (IFA) plus 100 ug GM-CSF. Vaccinations began 4 days after tumor cell implantation and were repeated (boosted) every 7 days to simulate a therapeutic setting. Survival was plotted according to Kaplan-Meier methods. Long-term survivors were confirmed tumor-free by high field strength MRI.

HLA-A*0201 [1] = target: T2, HLA-A*0201 (Homo sapiens, UniProt P04439, D140Y/D185E/D98H/E176V/E277Q/G131W/G231S/I119V/I121R/I166T/I218V/L300P/L318F/N151K/N90K/P208A/P217A/Q86G/Q94H/R138H/R169H/T345S); assay: MHC class I peptide competitive displacement assay; details: displacement of labeled HPV18-27, FIG. 4A-B
Source text: (§1) FIGS. 4A, 4B and 4C provide a graphical representations of data from an analysis of HLA-A*0201 binding properties of survivin peptides. To obtain the data summarized in FIGS. 4A and 4B, survivin peptide epitopes were used in MHC class I peptide competitive displacement assays. IC50 represents the 50% inhibition concentration of survivin peptide required to displace a fluorescently labeled-known human MHC Class I ligand (HPV18-27). Positive control peptides (Flu & gp100) represent known immunogenic MHC class I ligands. Data represent mean fluorescence±S.E.M. of triplicate samples. FIG. 4C provides a graphical representation of data for specific HLA-A*0201 pentamer binding of wild type and altered survivin peptide epitopes.
(§2) As such, both peptides will bind H-2 Kb (the murine MHC class I counterpart) to a similar extent in mice. […] However, it is in administration to humans that the peptides of the invention are expected to display their enhanced potential, since the alteration of 57C to M alters the wild type peptide so that it contains a sequence that facilitates improved interaction with human MHC I. This is supported by the disparate MHC class I binding characteristics of the wild type and M57 peptides (FIG. 4A-C). As determined by competitive peptide binding assays, SVN53-67/M57 binds HLA-A*0201 approximately 12 fold stronger than the wild type SVN53-67 (FIG. 4A-B). […]

HLA-A*0201 [2] = target: T2, HLA-A*0201; assay: survivin/MHC Class I-specific pentamer binding
Source text: as §1, §2

T L G E F L K L [SVN-97]
binding of SVN peptides to H2-K^b (mean fluorescence) (H2-K^b): less than SVN 57-64 wt, and considerably less than SVN 57-64/M57

M F F C F K E L (MFFCFKEL; SVN-57-64/M57 mutant peptide)
survival compared to wild type peptide (GL261 cells): enhances survival over the wild type peptide

DLAQMFFCFKELEGW (SVN53-67/M57 with C to M change)
HLA-A*0201 binding relative to wild type SVN53-67 (HLA-A*0201 [1]): approximately 12 fold
increase of MHC I binding relative to the wild type sequence (HLA-A*0201 [2]; in situ binding assays for HLA-A*0201, FIG. 2 and FIG. 4C): approximately 73 fold

SVN56-64/M57: core peptide, survivin 56-64 with the C>M alteration at position 57 (QMFFCFKEL)
HLA-A*0201 binding relative to wild type SVN56-64 (HLA-A*0201 [2]; pentamer, FIG. 4C): approximately 73 fold
